Results on eight molecules are retold here after patent USRE49847 (dated 2024).

This experiment concerns the target T1, soluble CD22-Fc (R&D Systems) (UniProt P20273 20-687).
T1 construct: Bought reagent used to stain CD22 CARs; not shown: Fc part; detected with anti-human IgG Fc-gamma secondary
T1 sequence (looked up): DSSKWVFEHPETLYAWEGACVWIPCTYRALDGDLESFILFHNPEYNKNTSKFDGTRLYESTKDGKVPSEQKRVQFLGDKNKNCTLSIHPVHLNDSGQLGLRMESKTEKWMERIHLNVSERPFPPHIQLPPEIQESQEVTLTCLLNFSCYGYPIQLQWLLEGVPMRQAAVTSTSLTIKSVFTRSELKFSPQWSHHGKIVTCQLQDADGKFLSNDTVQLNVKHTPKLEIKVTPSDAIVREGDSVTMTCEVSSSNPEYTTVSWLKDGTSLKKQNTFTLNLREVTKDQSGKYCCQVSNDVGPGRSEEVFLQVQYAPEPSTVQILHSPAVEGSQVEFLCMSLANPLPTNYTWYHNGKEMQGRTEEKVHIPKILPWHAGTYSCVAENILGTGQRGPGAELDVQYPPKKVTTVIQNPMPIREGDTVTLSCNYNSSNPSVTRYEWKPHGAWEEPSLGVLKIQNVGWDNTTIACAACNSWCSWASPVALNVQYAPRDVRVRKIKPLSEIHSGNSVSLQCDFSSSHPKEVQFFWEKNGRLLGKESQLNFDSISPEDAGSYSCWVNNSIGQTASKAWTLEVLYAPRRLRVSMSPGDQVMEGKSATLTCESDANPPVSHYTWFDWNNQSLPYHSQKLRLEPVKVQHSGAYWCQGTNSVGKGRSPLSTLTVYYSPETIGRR
In words: FACS surface staining of transduced JNL cells with CD22-Fc.

B1: tandem CD19/CD22 CAR construct 171 (other)
chain: EIVMTQSPATLSLSPGERATLSCRASQDISKYLNWYQQKPGQAPRLLIYHTSRLHSGIPARFSGSGSGTDYTLTISSLQPEDFAVYFCQQGNTLPYTFGQGTKLEIKGGGGSGGGGSGGGGSQVQLQESGPGLVKPSETLSLTCTVSGVSLPDYGVSWIRQPPGKGLEWIGVIWGSETTYYQSSLKSRVTISKDNSKNQVSLKLSSVTAADTAVYYCAKHYYYGGSYAMDYWGQGTLVTVSSLAEAAAKEVQLQQSGPGLVKPSQTLSLTCAISGDSMLSNSDTWNWIRQSPSRGLEWLGRTYHRSTWYDDYASSVRGRVSINVDTSKNQYSLQLNAVTPEDTGVYYCARVRLQDGNSWSDAFDVWGQGTMVTVSSGGGGSGGGGSGGGGSQSALTQPASASGSPGQSVTISCTGTSSDVGGYNYVSWYQQHPGKAPKLMIYDVSNRPSGVSNRFSGSKSGNTASLTISGLQAEDEADYYCSSYTSSSTLYVFGTGTQLTVLTTTPAPRPPTPAPTIASQPLSLRPEACRPAAGGAVHTRGLDFACDIYIWAPLAGTCGVLLLSLVITLYCKRGRKKLLYIFKQPFMRPVQTTQEEDGCSCRFPEEEEGGCELRVKFSRSADAPAYQQGQNQLYNELNLGRREEYDVLDKRRGRDPEMGGKPRRKNPQEGLYNELQKDKMAEAYSEIGMKGERRRGKGHDGLYQGLSTATKDTYDALHMQALPPR
notes: Distal anti-CD19 scFv, LAEAAAK, proximal anti-CD22 scFv H/L; also called CG#c171; c171
As for B1, the binding result is listed as “binds”.

B2: tandem CD22/CD19 CAR construct 183 (other)
chain: EVQLQQSGPGLVKPSQTLSLTCAISGDSMLSNSDTWNWIRQSPSRGLEWLGRTYHRSTWYDDYASSVRGRVSINVDTSKNQYSLQLNAVTPEDTGVYYCARVRLQDGNSWSDAFDVWGQGTMVTVSSGGGGSQSALTQPASASGSPGQSVTISCTGTSSDVGGYNYVSWYQQHPGKAPKLMIYDVSNRPSGVSNRFSGSKSGNTASLTISGLQAEDEADYYCSSYTSSSTLYVFGTGTQLTVLLAEAAAKEIVMTQSPATLSLSPGERATLSCRASQDISKYLNWYQQKPGQAPRLLIYHTSRLHSGIPARFSGSGSGTDYTLTISSLQPEDFAVYFCQQGNTLPYTFGQGTKLEIKGGGGSGGGGSGGGGSQVQLQESGPGLVKPSETLSLTCTVSGVSLPDYGVSWIRQPPGKGLEWIGVIWGSETTYYQSSLKSRVTISKDNSKNQVSLKLSSVTAADTAVYYCAKHYYYGGSYAMDYWGQGTLVTVSSTTTPAPRPPTPAPTIASQPLSLRPEACRPAAGGAVHTRGLDFACDIYIWAPLAGTCGVLLLSLVITLYCKRGRKKLLYIFKQPFMRPVQTTQEEDGCSCRFPEEEEGGCELRVKFSRSADAPAYQQGQNQLYNELNLGRREEYDVLDKRRGRDPEMGGKPRRKNPQEGLYNELQKDKMAEAYSEIGMKGERRRGKGHDGLYQGLSTATKDTYDALHMQALPPR
notes: Distal anti-CD22 scFv H/L short linker, LAEAAAK, proximal anti-CD19 scFv; leader 1-21 left out; also called CG#c183; c183
As to B2, the binding result is “binds”.

B3: tandem CD22/CD19 CAR construct 182 (other)
chain: EVQLQQSGPGLVKPSQTLSLTCAISGDSMLSNSDTWNWIRQSPSRGLEWLGRTYHRSTWYDDYASSVRGRVSINVDTSKNQYSLQLNAVTPEDTGVYYCARVRLQDGNSWSDAFDVWGQGTMVTVSSGGGGSGGGGSGGGGSQSALTQPASASGSPGQSVTISCTGTSSDVGGYNYVSWYQQHPGKAPKLMIYDVSNRPSGVSNRFSGSKSGNTASLTISGLQAEDEADYYCSSYTSSSTLYVFGTGTQLTVLGGGGSEIVMTQSPATLSLSPGERATLSCRASQDISKYLNWYQQKPGQAPRLLIYHTSRLHSGIPARFSGSGSGTDYTLTISSLQPEDFAVYFCQQGNTLPYTFGQGTKLEIKGGGGSGGGGSGGGGSQVQLQESGPGLVKPSETLSLTCTVSGVSLPDYGVSWIRQPPGKGLEWIGVIWGSETTYYQSSLKSRVTISKDNSKNQVSLKLSSVTAADTAVYYCAKHYYYGGSYAMDYWGQGTLVTVSSTTTPAPRPPTPAPTIASQPLSLRPEACRPAAGGAVHTRGLDFACDIYIWAPLAGTCGVLLLSLVITLYCKRGRKKLLYIFKQPFMRPVQTTQEEDGCSCRFPEEEEGGCELRVKFSRSADAPAYQQGQNQLYNELNLGRREEYDVLDKRRGRDPEMGGKPRRKNPQEGLYNELQKDKMAEAYSEIGMKGERRRGKGHDGLYQGLSTATKDTYDALHMQALPPR
notes: Distal anti-CD22 scFv H/L, GGGGS, proximal anti-CD19 scFv; leader 1-21 left out; also called CG#c182; c182
With B3, the binding result was “binds”.

B4: tandem CD19/CD22 CAR construct 174 (other)
chain: EIVMTQSPATLSLSPGERATLSCRASQDISKYLNWYQQKPGQAPRLLIYHTSRLHSGIPARFSGSGSGTDYTLTISSLQPEDFAVYFCQQGNTLPYTFGQGTKLEIKGGGGSGGGGSGGGGSQVQLQESGPGLVKPSETLSLTCTVSGVSLPDYGVSWIRQPPGKGLEWIGVIWGSETTYYQSSLKSRVTISKDNSKNQVSLKLSSVTAADTAVYYCAKHYYYGGSYAMDYWGQGTLVTVSSGGGGSEVQLQQSGPGLVKPSQTLSLTCAISGDSMLSNSDTWNWIRQSPSRGLEWLGRTYHRSTWYDDYASSVRGRVSINVDTSKNQYSLQLNAVTPEDTGVYYCARVRLQDGNSWSDAFDVWGQGTMVTVSSGGGGSQSALTQPASASGSPGQSVTISCTGTSSDVGGYNYVSWYQQHPGKAPKLMIYDVSNRPSGVSNRFSGSKSGNTASLTISGLQAEDEADYYCSSYTSSSTLYVFGTGTQLTVLTTTPAPRPPTPAPTIASQPLSLRPEACRPAAGGAVHTRGLDFACDIYIWAPLAGTCGVLLLSLVITLYCKRGRKKLLYIFKQPFMRPVQTTQEEDGCSCRFPEEEEGGCELRVKFSRSADAPAYQQGQNQLYNELNLGRREEYDVLDKRRGRDPEMGGKPRRKNPQEGLYNELQKDKMAEAYSEIGMKGERRRGKGHDGLYQGLSTATKDTYDALHMQALPPR
notes: Distal anti-CD19 scFv, GGGGS, proximal anti-CD22 scFv H/L with short linker; leader 1-21 left out; also called CG#c174; c174
B4: the binding result is “binds”.

B5: tandem CD19/CD22 CAR construct 173 (other)
chain: EIVMTQSPATLSLSPGERATLSCRASQDISKYLNWYQQKPGQAPRLLIYHTSRLHSGIPARFSGSGSGTDYTLTISSLQPEDFAVYFCQQGNTLPYTFGQGTKLEIKGGGGSGGGGSGGGGSQVQLQESGPGLVKPSETLSLTCTVSGVSLPDYGVSWIRQPPGKGLEWIGVIWGSETTYYQSSLKSRVTISKDNSKNQVSLKLSSVTAADTAVYYCAKHYYYGGSYAMDYWGQGTLVTVSSLAEAAAKEVQLQQSGPGLVKPSQTLSLTCAISGDSMLSNSDTWNWIRQSPSRGLEWLGRTYHRSTWYDDYASSVRGRVSINVDTSKNQYSLQLNAVTPEDTGVYYCARVRLQDGNSWSDAFDVWGQGTMVTVSSGGGGSQSALTQPASASGSPGQSVTISCTGTSSDVGGYNYVSWYQQHPGKAPKLMIYDVSNRPSGVSNRFSGSKSGNTASLTISGLQAEDEADYYCSSYTSSSTLYVFGTGTQLTVLTTTPAPRPPTPAPTIASQPLSLRPEACRPAAGGAVHTRGLDFACDIYIWAPLAGTCGVLLLSLVITLYCKRGRKKLLYIFKQPFMRPVQTTQEEDGCSCRFPEEEEGGCELRVKFSRSADAPAYQQGQNQLYNELNLGRREEYDVLDKRRGRDPEMGGKPRRKNPQEGLYNELQKDKMAEAYSEIGMKGERRRGKGHDGLYQGLSTATKDTYDALHMQALPPR
notes: Distal anti-CD19 scFv, LAEAAAK, proximal anti-CD22 scFv H/L with short linker; leader 1-21 left out; also called CG#c173; c173
Turning to B5, the binding result was “binds”.

B6: control anti-CD22 CAR CAR22-65 (other)
chain: EVQLQQSGPGLVKPSQTLSLTCAISGDSMLSNSDTWNWIRQSPSRGLEWLGRTYHRSTWYDDYASSVRGRVSINVDTSKNQYSLQLNAVTPEDTGVYYCARVRLQDGNSWSDAFDVWGQGTMVTVSSGGGGSGGGGSGGGGSQSALTQPASASGSPGQSVTISCTGTSSDVGGYNYVSWYQQHPGKAPKLMIYDVSNRPSGVSNRFSGSKSGNTASLTISGLQAEDEADYYCSSYTSSSTLYVFGTGTQLTVL
notes: also called CAR22-65 Long; not shown: hinge, transmembrane, 4-1BB and CD3zeta parts of the CAR
As to B6, the binding result was “binds”.

B7: tandem CD19/CD22 CAR construct 172 (other)
chain: EIVMTQSPATLSLSPGERATLSCRASQDISKYLNWYQQKPGQAPRLLIYHTSRLHSGIPARFSGSGSGTDYTLTISSLQPEDFAVYFCQQGNTLPYTFGQGTKLEIKGGGGSGGGGSGGGGSQVQLQESGPGLVKPSETLSLTCTVSGVSLPDYGVSWIRQPPGKGLEWIGVIWGSETTYYQSSLKSRVTISKDNSKNQVSLKLSSVTAADTAVYYCAKHYYYGGSYAMDYWGQGTLVTVSSGGGGSEVQLQQSGPGLVKPSQTLSLTCAISGDSMLSNSDTWNWIRQSPSRGLEWLGRTYHRSTWYDDYASSVRGRVSINVDTSKNQYSLQLNAVTPEDTGVYYCARVRLQDGNSWSDAFDVWGQGTMVTVSSGGGGSGGGGSGGGGSQSALTQPASASGSPGQSVTISCTGTSSDVGGYNYVSWYQQHPGKAPKLMIYDVSNRPSGVSNRFSGSKSGNTASLTISGLQAEDEADYYCSSYTSSSTLYVFGTGTQLTVLTTTPAPRPPTPAPTIASQPLSLRPEACRPAAGGAVHTRGLDFACDIYIWAPLAGTCGVLLLSLVITLYCKRGRKKLLYIFKQPFMRPVQTTQEEDGCSCRFPEEEEGGCELRVKFSRSADAPAYQQGQNQLYNELNLGRREEYDVLDKRRGRDPEMGGKPRRKNPQEGLYNELQKDKMAEAYSEIGMKGERRRGKGHDGLYQGLSTATKDTYDALHMQALPPR
notes: Distal anti-CD19 scFv, GGGGS, proximal anti-CD22 scFv H/L; leader 1-21 left out; end of range counted without it; also called CG#c172; c172
Regarding B7, the binding result is recorded as “binds”.

B8: tandem CD22/CD19 CAR construct 181 (other)
chain: EVQLQQSGPGLVKPSQTLSLTCAISGDSMLSNSDTWNWIRQSPSRGLEWLGRTYHRSTWYDDYASSVRGRVSINVDTSKNQYSLQLNAVTPEDTGVYYCARVRLQDGNSWSDAFDVWGQGTMVTVSSGGGGSGGGGSGGGGSQSALTQPASASGSPGQSVTISCTGTSSDVGGYNYVSWYQQHPGKAPKLMIYDVSNRPSGVSNRFSGSKSGNTASLTISGLQAEDEADYYCSSYTSSSTLYVFGTGTQLTVLLAEAAAKEIVMTQSPATLSLSPGERATLSCRASQDISKYLNWYQQKPGQAPRLLIYHTSRLHSGIPARFSGSGSGTDYTLTISSLQPEDFAVYFCQQGNTLPYTFGQGTKLEIKGGGGSGGGGSGGGGSQVQLQESGPGLVKPSETLSLTCTVSGVSLPDYGVSWIRQPPGKGLEWIGVIWGSETTYYQSSLKSRVTISKDNSKNQVSLKLSSVTAADTAVYYCAKHYYYGGSYAMDYWGQGTLVTVSSTTTPAPRPPTPAPTIASQPLSLRPEACRPAAGGAVHTRGLDFACDIYIWAPLAGTCGVLLLSLVITLYCKRGRKKLLYIFKQPFMRPVQTTQEEDGCSCRFPEEEEGGCELRVKFSRSADAPAYQQGQNQLYNELNLGRREEYDVLDKRRGRDPEMGGKPRRKNPQEGLYNELQKDKMAEAYSEIGMKGERRRGKGHDGLYQGLSTATKDTYDALHMQALPPR
notes: Distal anti-CD22 scFv H/L, LAEAAAK, proximal anti-CD19 scFv; leader 1-21 left out; also called CG#c181; c181
Take B8: the binding result was “binds”.
